According to patent publication US9132174 (ANCHORED RSK3 INHIBITORS, dated 2015):

T1: His-tagged mAKAP 1286-1833 (bacterially expressed) (UniProt Q9WVC7 1286-1833)
T1 chain: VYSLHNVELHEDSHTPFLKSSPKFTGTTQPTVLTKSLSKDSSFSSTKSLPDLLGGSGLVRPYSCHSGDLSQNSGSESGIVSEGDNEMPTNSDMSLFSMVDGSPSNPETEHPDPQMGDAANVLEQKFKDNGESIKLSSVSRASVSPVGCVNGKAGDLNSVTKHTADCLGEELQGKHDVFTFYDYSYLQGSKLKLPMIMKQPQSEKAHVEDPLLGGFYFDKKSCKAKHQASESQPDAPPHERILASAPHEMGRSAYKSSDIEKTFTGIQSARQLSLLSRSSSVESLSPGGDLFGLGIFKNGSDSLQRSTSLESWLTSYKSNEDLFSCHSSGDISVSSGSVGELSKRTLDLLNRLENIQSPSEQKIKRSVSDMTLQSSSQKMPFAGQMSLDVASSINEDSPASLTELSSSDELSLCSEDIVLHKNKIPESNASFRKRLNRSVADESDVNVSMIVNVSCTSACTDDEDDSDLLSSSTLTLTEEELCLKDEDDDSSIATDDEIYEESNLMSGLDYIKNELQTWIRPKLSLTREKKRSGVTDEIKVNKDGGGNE

T2: His-tagged mAKAP 1286-1833 (bacterially expressed) (UniProt Q9WVC7 1286-1833)
T2 construct: Covalently immobilised by amine coupling on a CM5 chip, 200 resonance units; not shown: His tag (pET30 parent vector)
T2 sequence (looked up): T1 chain

B1: His-tagged full-length RSK3, unphosphorylated (bacterially expressed) (enzyme)
chain: MDLSMKKFAVRRFFSVYLRRKSRSKSSSLSRLEEEGVVKEIDISHHVKEGFEKADPSQFELLKVLGQGSYGKVFLVRKVKGSDAGQLYAMKVLKKATLKVRDRVRSKMERDILAEVNHPFIVKLHYAFQTEGKLYLILDFLRGGDLFTRLSKEVMFTEEDVKFYLAELALALDHLHSLGIIYRDLKPENILLDEEGHIKITDFGLSKEAIDHDKRAYSFCGTIEYMAPEVVNRRGHTQSADWWSFGVLMFEMLTGSLPFQGKDRKETMALILKAKLGMPQFLSGEAQSLLRALFKRNPCNRLGAGIDGVEEIKRHPFFVTIDWNTLYRKEIKPPFKPAVGRPEDTFHFDPEFTARTPTDSPGVPPSANAHHLFRGFSFVASSLIQEPSQQDLHKVPVHPIVQQLHGNNIHFTDGYEIKEDIGVGSYSVCKRCVHKATDTEYAVKIIDKSKRDPSEEIEILLRYGQHPNIITLKDVYDDGKFVYLVMELMRGGELLDRILRQRYFSEREASDVLCTITKTMDYLHSQGVVHRDLKPSNILYRDESGSPESIRVCDFGFAKQLRAGNGLLMTPCYTANFVAPEVLKRQGYDAACDIWSLGILLYTMLAGFTPFANGPDDTPEEILARIGSGKYALSGGNWDSISDAAKDVVSKMLHVDPHQRLTAMQVLKHPWVVNREYLSPNQLSRQDVHLVKGAMAATYFALNRTPQAPRLEPVLSSNLAQRRGMKRLTSTRL
B2: ERK-phosphorylated His-RSK3 (enzyme)
chain: B1 chain
modifications: phosphorylated in vitro with ERK2; sites of this preparation not given
notes: also called Phospho-His-RSK3 (ERK2); not shown: His tag
B3: ERK and PDK1-phosphorylated His-RSK3 (enzyme)
chain: B1 chain
modifications: phosphorylated in vitro with ERK2 and PDK1; sites of this preparation not given
notes: also called Phospho-His-RSK3 (ERK2 and PDK1); not shown: His tag

What was measured:
[1] = molecular target: T1, His-tagged mAKAP 1286-1833 (bacterially …); assay: SPR; unphosphorylated RSK3
[2] = molecular target: T2, His-tagged mAKAP 1286-1833 (bacterially …); assay: SPR (BIAcore T100), His-mAKAP 1286-1833 immobilised, phospho-His-RSK3 as analyte
Excerpt: Figure 7: FIG. 7. The p90 ribosomal S6 kinase type 3 (RSK3) binding site within muscle A-kinase anchoring protein (mAKAP). A, mAKAP domain structure. […] All fragments are numbered per mAKAPα. The grey bar indicates the RSK3 binding site. B-F, Specific tag antibodies were used to immunoprecipitate myc-tagged mAKAPβ and HA-tagged p90 ribosomal S6 kinase (RSK) proteins (see FIG. 4A) co-expressed in either HEK293 (B) or COS-7 (C-F) cells (n=3) for all panels. G, Surface plasmon resonance using purified bacterially expressed proteins. […] Each curve was repeated 3 times using different protein preparations.
Surface Plasmon Resonance: SPR analysis was performed using a BIAcore T100. […] (Biacore amine coupling kit) to the surface of a sensor chip (BIAcore type CM5). His-RSK3 analytes (6.25-200 nmol/L) in HBS buffer (10 mmol/L Hepes, pH 7.4, 150 mmol/L NaCl, and 0.005% Surfactant P20) were injected at a flow rate of 30 μL/min for 5 minutes, followed by buffer alone for another 5 minutes. Sensorgrams were processed by BIAcore T100 evaluation software.

[3] = molecular target: T1, His-tagged mAKAP 1286-1833 (bacterially …); assay: SPR; ERK-phosphorylated RSK3
[4] = molecular target: T1, His-tagged mAKAP 1286-1833 (bacterially …); assay: SPR; ERK- and PDK1-phosphorylated RSK3

Row | Binder | Kd [1] [nM] | fold decrease in binding affinity against unphosphorylated RSK3 [2] [fold] | Kd [3] [nM] | Kd [4] [nM]
1 | B1 | 1.6 | – | – | –
2 | B2 | – | 5 | 7.3 | –
3 | B3 | – | 8 | – | 12.7
